# Source: the Immune Epitope Database (IEDB)
# Experiments:
# Experiment in all cases: IEDB peptide-MHC binding, purified MHC/competitive/fluorescence; filed as Kd, often an IC50 or EC50 that approximates it; ≥ and ≤ were set here for values at or beyond the usual limits of such assays
# Conditions in all cases: source organism: Entamoeba histolytica HM-1:IMSS
# [1] = biological target: HLA-A*30:01
# [2] = biological target: HLA-B*40:01
# [3] = biological target: HLA-B*46:01
# [4] = biological target: HLA-B*39:01
# [5] = biological target: HLA-A*30:02
# [6] = biological target: HLA-B*27:05
# [7] = biological target: HLA-B*27:03
# [8] = biological target: HLA-B*51:01
sequence,measurement,setting,value
EVIRATYPS,Kd,[1],≥ 5 µM
same,Kd,[2],≥ 5 µM
same,Kd,[3],≥ 20 µM
same,Kd,[4],≥ 20 µM
same,Kd,[5],≥ 5 µM
same,Kd,[6],≥ 5 µM
same,Kd,[7],≥ 20 µM
same,Kd,[8],≥ 20 µM
